Measured values published in article PMC10194908 (2023).

T1: Recombinant NS1 from DENV-3-Sri Lanka D3/H/IMTSSA-SRI/2000/1266 (dengue virus serotype 3 (Sri Lanka …, UniProt Q6YMS4 774-1125))
T1 chain: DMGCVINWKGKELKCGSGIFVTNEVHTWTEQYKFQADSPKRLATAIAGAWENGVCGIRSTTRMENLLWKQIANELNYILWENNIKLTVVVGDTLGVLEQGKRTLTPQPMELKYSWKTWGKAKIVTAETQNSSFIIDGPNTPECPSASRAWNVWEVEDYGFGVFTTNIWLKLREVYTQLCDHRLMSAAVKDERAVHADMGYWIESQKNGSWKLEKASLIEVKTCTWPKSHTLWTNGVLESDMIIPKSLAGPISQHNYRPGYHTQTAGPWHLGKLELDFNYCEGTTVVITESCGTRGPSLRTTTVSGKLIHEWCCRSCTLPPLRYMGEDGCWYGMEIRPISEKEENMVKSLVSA

T2: Recombinant NS1 from DENV-4-Dominica/814669/1981 (dengue virus serotype 4 …, UniProt P09866 775-1126)
T2 chain: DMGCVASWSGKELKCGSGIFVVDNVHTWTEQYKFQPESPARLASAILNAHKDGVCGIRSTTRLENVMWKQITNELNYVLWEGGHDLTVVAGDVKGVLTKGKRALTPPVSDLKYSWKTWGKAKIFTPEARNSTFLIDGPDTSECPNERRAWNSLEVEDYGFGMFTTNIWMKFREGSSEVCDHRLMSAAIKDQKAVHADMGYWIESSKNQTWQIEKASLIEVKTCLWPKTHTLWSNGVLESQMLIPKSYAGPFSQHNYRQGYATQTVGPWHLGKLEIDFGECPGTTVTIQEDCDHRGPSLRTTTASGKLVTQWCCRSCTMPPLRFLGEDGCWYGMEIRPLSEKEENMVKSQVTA

B1: A2 (antibody, V domains shown)
VH: QVQLQESGGGVVQPGRSLRLFCAASGFTFSAFSTYAIHWVRQAPGKGLEWVAVISYDANNKYYADSVKGRFTISRDNFKSTLFLQMNSLRAEDTAVYYCARDRSDSGYDSYYYYYGMDVWGQGTTVTVSS
VL: QSVVTQPPSVSAAPGQKVTISCSGSSSNIGRNYVSWYQHLPGTAPKLLIYDNNKRRSGIPDRFSGSKSDTTATLGITGLQTVDEADYYCGSWDNSLSAYVFGTGTKVTV
B2: D6 (antibody, V domains shown)
VH: EVQLVQSGGGLVQPGRSLRLSCAASGFTFQDYAMHWVRQAPGKGLEWVSGIGRDSGTIDYADSVKGRFTISRDNAKNSLYLQMNSLRAEDTALYYCAKISNGYRPDNWGQGTLVTVSS
VL: VLTQPPSVSVSPGQTARITCSGDVLAKRYARWFQQKPGQAPVVVIYKDSERPSGIPERLSGSSSGTTVTLTISGAQVEDEADYYCYCAADNNVVFGGGTKLTVL
B3: D8 (antibody, V domains shown)
VH: QVQLQESGPGLVKPSETLPLTCTVSGGSISNNGFYWGWIRQPPGKGLEWIGNIYYRGSTYYNPSLNSRVTISVDTSKNQFSLQLNSVTAADTAVYYCARLGIQLWFAIDYWGQGTLVTVSS
VL: SVLTQPPAVSVALGQTVRITCQGDSLRSSYASWYQQKPGQAPVLIFYAKNNRPSGIPDRFSGSSSGNTASLTITGAQAEDEADYYCYSRDSSGNLWVFGGGTKLTVL
B4: Recombinant NS1 from DENV-1-Nauru/Western Pacific/1974 (natural protein)
chain: DSGCVINWKGRELKCGSGIFVTNEVHTWTEQYKFQADSPKRLSAAIGKAWEEGVCGIRSATRLENIMWKQISNELNHILLENDMKFTVVVGDVSGILAQGKKMIRPQPMEHKYSWKSWGKAKIIGADVQNTTFIIDGPNTPECPDNQRAWNIWEVEDYGFGIFTTNIWLKLRDSYTQVCDHRLMSAAIKDSKAVHADMGYWIESEKNETWKLARASFIEVKTCIWPKSHTLWSNGVLESEMIIPKIYGGPISQHNYRPGYFTQTAGPWHLGKLELDFDLCEGTTVVVDEHCGNRGPSLRTTTVTGKTIHEWCCRSCTLPPLRFKGEDGCWYGMEIRPVKEKEENLVKSMVSA

What was measured:
Experiment in all cases: BLI
[1] = molecular target: T3, Recombinant NS1 from DENV-2-Thailand/16681/84 (dengue virus serotype 2 …, UniProt P29990 776-1127)
T3 sequence (P29990 776-1127): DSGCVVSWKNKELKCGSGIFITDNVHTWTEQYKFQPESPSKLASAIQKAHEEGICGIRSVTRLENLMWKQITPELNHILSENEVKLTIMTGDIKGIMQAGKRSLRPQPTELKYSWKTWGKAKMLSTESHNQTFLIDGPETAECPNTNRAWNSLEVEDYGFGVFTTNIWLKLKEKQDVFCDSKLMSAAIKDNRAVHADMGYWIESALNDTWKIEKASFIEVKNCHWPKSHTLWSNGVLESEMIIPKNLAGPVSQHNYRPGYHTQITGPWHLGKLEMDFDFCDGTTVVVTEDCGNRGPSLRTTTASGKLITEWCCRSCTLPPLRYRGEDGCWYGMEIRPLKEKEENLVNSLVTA

[2] = molecular target: T1, Recombinant NS1 from DENV-3-Sri Lanka …
[3] = molecular target: T2, Recombinant NS1 from …
[4] = molecular target: B4
[5] = molecular target: T3, Recombinant NS1 from …; remark: listed apart in the source
[6] = molecular target: T1, Recombinant NS1 from DENV-3-Sri Lanka …
[7] = molecular target: T2, Recombinant NS1 from …
[8] = molecular target: B4
Den3 = molecular target: Den3

Binder | Kd [1] | Kd [2] | Kd [3] | Kd [4] | koff [5] | koff [6] | koff [7] | koff [8] | Kd (Den3) | koff (Den3)
B1 | < 0.001 nM | < 0.001 nM | 4.41 nM | 1.61 nM | < 1e-07 s⁻¹ | < 1e-07 s⁻¹ | 0.0016 s⁻¹ | 0.000221 s⁻¹ | – | –
B2 | < 0.001 nM | – | 0.17 nM | 2.67 nM | < 1e-07 s⁻¹ | – | 5.9e-05 s⁻¹ | 0.000344 s⁻¹ | – | –
B3 | < 0.001 nM | 0.569 nM | < 0.001 nM | 1.06 nM | < 1e-07 s⁻¹ | 6.68e-05 s⁻¹ | < 1e-07 s⁻¹ | 9.79e-05 s⁻¹ | – | –
B4 | – | – | – | – | – | – | – | – | < 0.001 nM | < 1e-07 s⁻¹
